The target in this assay is C-terminal domain of the NS2 protein of hepatitis C virus, amino acids 94 to 217 of NS2 from HCV genotype 1a strain H77 (residues 903 to 1026 of the HCV polyprotein) (hepatitis C virus genotype 1a strain H77) (UniProt P27958). As to the kind of experiment: X-ray crystal structure.

“C-terminal domain of the NS2 protein of hepatitis C virus, amino acids 94 to 217 of NS2 from HCV genotype 1a strain H77 (residues 903 to 1026 of the HCV polyprotein) (from UniProt P27958) (enzyme)” yielded a total buried surface area of 1100 Å^2.
